Results published in patent publication US20210252150A1 (VANDERBILT UNIVERSITY, published 2021).
Positions count from the first letter of the chain named. Read-outs that look alike come from different tables or passages of the source.

How the values were obtained:
[1] = target: T1, HA of A/South Carolina/1/1918 (H1N1) (influenza A virus (H1N1), UniProt Q9WFX3 18-529); assay: Octet (BLI) with HA
[2] = target: HA of A/Japan/305/1957 (H2N2) (influenza A virus (H2N2), UniProt P03451 16-525); assay: Octet (BLI) with HA
[3] = target: T2, HA of A/turkey/Wisconsin/1/1966 (H9N2) (influenza A virus (H9N2), UniProt P03457 19-526); assay: Octet (BLI) with HA
[4] = target: T3, HA of A/Hong Kong/1/1968 (H3N2) (influenza A virus (H3N2), UniProt Q91MA7 17-530); assay: Octet (BLI) with HA
[5] = target: T1, HA of A/South Carolina/1/1918 (H1N1); assay: ELISA (highest dilution tested 1/50,000)
[6] = target: T3, HA of A/Hong Kong/1/1968 (H3N2); assay: ELISA (highest dilution tested 1/50,000)
[7] = target: T4, HA of A/Singapore/1/1957 (H2) (influenza A virus (H2), UniProt Q67333 16-525); assay: ELISA
[8] = target: T4, HA of A/Singapore/1/1957 (H2); assay: ELISA, recombinant HA
[9] = target: T2, HA of A/turkey/Wisconsin/1/1966 (H9N2); assay: ELISA, recombinant HA
[10] = target: T4, HA of A/Singapore/1/1957 (H2); assay: ELISA; remark: listed apart in the source
[11] = target: T2, HA of A/turkey/Wisconsin/1/1966 (H9N2); assay: ELISA, recombinant HA; remark: listed apart in the source
[12] = target: T4, HA of A/Singapore/1/1957 (H2); assay: ELISA; remark: listed apart in the source
[13] = target: T4, HA of A/Singapore/1/1957 (H2); assay: ELISA; remark: listed apart in the source
[14] = target: T4, HA of A/Singapore/1/1957 (H2); assay: ELISA, recombinant HA; remark: listed apart in the source
[15] = target: T3, HA of A/Hong Kong/1/1968 (H3N2); assay: ELISA, recombinant HA
[16] = target: T3, HA of A/Hong Kong/1/1968 (H3N2); assay: ELISA, recombinant HA; remark: listed apart in the source
[17] = target: T1, HA of A/South Carolina/1/1918 (H1N1); assay: BLI, 1:1 global fit; Table S2 of the text prints 46 for this strain
[18] = target: T1, HA of A/South Carolina/1/1918 (H1N1); assay: BLI, Fab on immobilized biotinylated HA
[19] = target: HA of A/Victoria/3/1975 (H3N2) (influenza A virus (H3N2), UniProt P03435 17-531); assay: BLI, Fab on immobilized biotinylated HA
[20] = target: T1, HA of A/South Carolina/1/1918 (H1N1); assay: BLI, Fab on immobilized biotinylated HA; remark: listed apart in the source
[21] = target: HA of A/Perth/16/2009 (H3N2) (influenza A virus (H3N2), UniProt O11283 17-530); assay: BLI, Fab on immobilized biotinylated HA
[22] = target: T3, HA of A/Hong Kong/1/1968 (H3N2); assay: BLI, Fab on immobilized biotinylated HA
[23] = target: T3, HA of A/Hong Kong/1/1968 (H3N2); assay: BLI, Fab on immobilized biotinylated HA; remark: listed apart in the source

T1 sequence (Q9WFX3 18-529): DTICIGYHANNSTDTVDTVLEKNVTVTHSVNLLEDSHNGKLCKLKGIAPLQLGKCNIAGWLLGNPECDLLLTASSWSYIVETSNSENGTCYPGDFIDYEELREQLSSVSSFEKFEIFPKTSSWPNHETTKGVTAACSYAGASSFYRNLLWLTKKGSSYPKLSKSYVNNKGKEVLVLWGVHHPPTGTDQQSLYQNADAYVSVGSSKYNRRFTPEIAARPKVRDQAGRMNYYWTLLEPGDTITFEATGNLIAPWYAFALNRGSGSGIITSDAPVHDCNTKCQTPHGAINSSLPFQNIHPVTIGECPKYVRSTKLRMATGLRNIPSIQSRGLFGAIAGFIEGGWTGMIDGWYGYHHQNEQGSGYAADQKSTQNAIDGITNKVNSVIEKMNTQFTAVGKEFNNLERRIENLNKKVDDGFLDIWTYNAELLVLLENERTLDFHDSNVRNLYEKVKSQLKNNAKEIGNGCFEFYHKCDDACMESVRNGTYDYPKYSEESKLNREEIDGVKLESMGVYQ
T2 sequence (P03457 19-526 limits assumed): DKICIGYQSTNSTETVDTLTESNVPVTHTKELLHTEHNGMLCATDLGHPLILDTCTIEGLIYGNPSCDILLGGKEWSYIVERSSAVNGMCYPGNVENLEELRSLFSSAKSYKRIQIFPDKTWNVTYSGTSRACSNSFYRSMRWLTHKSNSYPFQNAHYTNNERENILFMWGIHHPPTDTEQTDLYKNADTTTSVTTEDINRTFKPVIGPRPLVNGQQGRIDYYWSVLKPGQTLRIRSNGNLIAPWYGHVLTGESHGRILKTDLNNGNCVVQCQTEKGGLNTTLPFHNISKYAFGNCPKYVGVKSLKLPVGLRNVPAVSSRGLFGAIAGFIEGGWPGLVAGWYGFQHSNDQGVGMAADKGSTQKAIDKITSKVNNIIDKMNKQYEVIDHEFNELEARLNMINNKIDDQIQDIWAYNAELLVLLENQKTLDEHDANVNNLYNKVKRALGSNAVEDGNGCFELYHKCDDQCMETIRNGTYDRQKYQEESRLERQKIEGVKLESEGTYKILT
Sequence of HA of A/Victoria/3/1975 (H3N2) (P03435 17-531 limits assumed): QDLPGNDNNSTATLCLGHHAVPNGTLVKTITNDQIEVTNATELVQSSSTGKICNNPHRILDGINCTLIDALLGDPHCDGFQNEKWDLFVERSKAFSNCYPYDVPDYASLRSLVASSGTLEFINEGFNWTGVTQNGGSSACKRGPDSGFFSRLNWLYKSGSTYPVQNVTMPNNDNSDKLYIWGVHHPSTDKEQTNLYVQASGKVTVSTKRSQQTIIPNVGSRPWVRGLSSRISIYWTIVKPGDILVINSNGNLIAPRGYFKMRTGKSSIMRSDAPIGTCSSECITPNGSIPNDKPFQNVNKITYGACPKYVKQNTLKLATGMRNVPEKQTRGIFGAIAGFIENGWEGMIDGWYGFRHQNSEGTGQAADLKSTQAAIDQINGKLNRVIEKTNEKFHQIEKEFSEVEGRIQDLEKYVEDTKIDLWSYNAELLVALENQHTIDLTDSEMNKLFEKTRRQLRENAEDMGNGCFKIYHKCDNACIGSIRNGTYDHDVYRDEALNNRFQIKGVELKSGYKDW

B1: H5.31 (antibody, V domains shown)
VH: EVQLVQSGGGLVQPGGSLRLSCEASRFTSSSYWITWVRQAPGKGLEWVANIKQDGSEKYFVDSVKGRFTISRDNASNSLYLQMSSLRAEDTAVYYCARGFLERLLLGRQGAYYYGMDVWGQGTTVTVSS
VL: DIQMTQSPSSLSASVGDRVTMTCRASQSISSSLNWYQQKPGKAPKLLIYAASNLQSGVPSRFSGSGSGTDFTLTISSLQPEDFATYYCQQSYTMPPELTFGGGTKVQIK
Kd [1]: 0.00017 µM
Kd [2]: 0.00013 µM
Kd [3]: 0.017 µM
Kd [4]: 0.0054 µM
EC50 [5]: 0.031 mg/L
EC50 [6]: 0.024 mg/L

B2: FluA-20 (hybridoma-produced IgG) (antibody, V domains shown)
VH: QVQLQESGPGLVKPSETLSLTCSVSGVSVTSDIYYWTWIRQPPGKGLEWIGYIFYNGDTNYNPSLKSRVTMSIDTSKNEFSLRLTSVTAADTAVYFCARGTEDLGYCSSGSCPNHWGQGTLVTVSS
VL: DIQMTQSPSSLSASIGDRVTITCRPSQNIRSFLNWFQHKPGKAPKLLIYAASNLQSGVPSRFSGSGSGTEFTLTIRSLQPEDFATYYCQQSYNTPPTFGQGTKVEIK
EC50 [7]: 0.18 mg/L
EC50 [8]: 0.009 mg/L
EC50 [9]: 0.022 mg/L
EC50 [10]: 0.007 mg/L
EC50 [11]: 0.063 mg/L

B3: rFluA-20 (recombinant FluA-20 IgG) (antibody, V domains shown)
VH: B2 VH
VL: B2 VL
EC50 [9]: 0.016 mg/L
EC50 [12]: 0.011 mg/L
EC50 [13]: 0.011 mg/L
EC50 [14]: 0.178 mg/L
EC50 [11]: 0.193 mg/L

B4: UCA (antibody, V domains shown)
VH: QVQLQESGPGLVKPSETLSLTCTVSGGSVSSGSYYWSWIRQPPGKGLEWIGYIYYSGSTNYNPSLKSRVTISVDTSKNQFSLKLSSVTAADTAVYYCARGTEDLGYCSGGSCPNHWGQGTLVTV
VL: not shown
EC50 [8]: 0.028 mg/L
EC50 [15]: 0.021 mg/L
EC50 [14]: 0.07 mg/L
EC50 [11]: 0.359 mg/L
EC50 [16]: 0.054 mg/L

B5: FluA-20 Fab (Fab, V domains shown)
VH: B2 VH
VL: B2 VL
Kd [17]: ~0.048 µM
Kd [18]: 0.046 µM
Kd [19]: 3.46 µM
Kd [20]: 0.046 µM

B6: H5.28 (antibody, V domains shown)
VH: EVQLVESGGGLVQPGGSLRLSCAASGFTFSTYWMTWVRQAPGKGLEWVANINQDGGEKYFVDSVKGRFTISRDNAKNSLFLQMNTLRAEDTAVYYCARGFLERLLLGRQGAYYYGMDVWGQGTTVTVSS
VL: B1 VL with T20S, S28I, T93S, M94T, Q107E
Kd [1]: 0.00011 µM
Kd [2]: 0.00019 µM
Kd [3]: 0.065 µM
Kd [4]: 0.075 µM
EC50 [5]: 0.081 mg/L
EC50 [6]: 16 mg/L

B7: FluA-20 UCA Fab (unmutated common ancestor of FluA-20) (Fab, V domains shown)
VH: B4 VH
VL: not shown
Kd [18]: 0.937 µM
binding result [19]: no binding (tested: 2 µM)
binding result [21]: no binding (tested: 2 µM)
Kd [22]: 0.486 µM
Kd [20]: 0.937 µM
Kd [23]: 0.486 µM
